Results as given in patent US7189691B2, “Methods and compositions for treating leukemia” (The Administrators of the Tulane Educational Fund, priority 2004, dated 2007).
Ends that are not written are not given here.

How the values were obtained:
AF4-AF9 interaction = target: T1, AF4-AF9 interaction (Homo sapiens, UniProt P42568); assay: Enzyme-linked protein binding assay, GST-AF4(749-775) and biotinylated AF9; details: peptide 20 μg/ml; FIG. 2A
T1 construct: made in house; host or cells: GST-AF4 from E. coli; AF9 by coupled in vitro transcription/translation (Promega)
T1 sequence (P42568 211-568): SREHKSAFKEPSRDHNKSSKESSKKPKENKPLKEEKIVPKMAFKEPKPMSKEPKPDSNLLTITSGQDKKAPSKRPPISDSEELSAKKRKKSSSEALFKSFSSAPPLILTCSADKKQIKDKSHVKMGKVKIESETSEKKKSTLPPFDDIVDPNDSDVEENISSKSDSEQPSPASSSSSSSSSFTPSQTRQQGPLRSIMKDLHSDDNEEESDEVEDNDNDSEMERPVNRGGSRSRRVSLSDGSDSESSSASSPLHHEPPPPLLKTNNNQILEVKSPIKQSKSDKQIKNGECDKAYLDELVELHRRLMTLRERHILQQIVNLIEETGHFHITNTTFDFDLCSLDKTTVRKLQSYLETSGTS
Experimental: Next, an enzyme-linked protein binding assay was developed as a potential high throughput tool to semi-quantitatively assess the ability of various compounds to disrupt the AF4-AF9 interaction in vitro (FIGS. 2A and 2B).
GST-AF4 (749–775) SEQ ID NO: 107 was bound to glutathione-coated 96-well plates and incubated with biotinylated AF9 in conjunction with 20 μg/ml of the following peptides: • (a) Pen-[…], a fusion protein of PENETRATIN™ transporter peptide to the amino terminus of […](SEQ ID NO: 110, PFmut), • (b) Pen-[…], a fusion protein of the transporter protein PENETRATIN™ to the amino terminus of […](SEQ ID NO: 2; or PFWT), • (c) […] or […](SEQ ID NO: 111); • (d) […] or […] (SEQ ID NO: 112); • (e) […] or […](SEQ ID NO: 113), or with • (f) DMSO, or • (g) GST-Cx, a control.
The plate was washed and the retention of AF9 was determined by a colorimetric assay using streptavidin-alkaline phosphatase and pNPP as a substrate. […] At this same peptide concentration, PFmut (a) in col. […] The 10 amino acid peptide (d) in col. 6 is the smallest molecule found to have activity in vitro.

B1 leukemia cell line = assay: MTT viability assay; format: cell-based; details: 72 h, differing concentrations
Experimental: All cell lines were maintained in RPMI 1640+10% FCS. 100 μl aliquots of cell suspension (5×10^5 cells/ml) were cultured in flat-bottomed 96 well plates in the presence of different concentrations of peptides. After 72 h incubation at 37° C. in humidified air containing 5% CO2, viable cell number was determined by MTT assay as follows: 10 μl of 3-[4,5-dimethylthiazol-2-yl]-2,5-diphenyl tetrazolium bromide (MTT) (5 mg/ml concentration) (Sigma) was added to each well and incubated further for 6 h. Formazan crystals that are formed during incubation were dissolved in 100 μl of acidified isopropanol. The optical density at 550 nm (which is linearly related to the number of viable cells) was measured using a plate spectrophotometer. Growth characteristics of the leukemia cell lines were also determined for cells by Trypan Blue exclusion.

## LWVKIDLDLLSR [(c)]
AF4-AF9 interaction
  AF9 binding to GST-AF4 (retention of AF9): block AF9 binding

## Leu-Trp-Val-Lys-Ile-Asp-Leu-Asp-Leu-Leu- (LWVKIDLDLL; structurally based on a fragment of the naturally occuring human and murine AF4 protein family members) [(d)]
AF4-AF9 interaction
  AF9 binding to GST-AF4 (retention of AF9): block AF9 binding

## Lys-Lys-Lys-Lys-Lys-Lys-Arg-Lys-Val-Leu-Ile-Val-Arg-Ile-Asp-Leu-Asp-Leu-Leu-Ser- (KKKKKKRKVLIVRIDLDLLS; structurally based on a fragment of the naturally occuring human and murine AF4 protein family members) [SPK4]
B1 leukemia cell line
  cell viability: inhibits

## WVKIDLDL [(e)]
AF4-AF9 interaction
  AF9 binding to GST-AF4 (retention of AF9): did not interfere with AF9 binding
